This test addresses T1, GST-Hoxa1-993 (mouse, UniProt P09022 1-331).
T1 sequence (looked up): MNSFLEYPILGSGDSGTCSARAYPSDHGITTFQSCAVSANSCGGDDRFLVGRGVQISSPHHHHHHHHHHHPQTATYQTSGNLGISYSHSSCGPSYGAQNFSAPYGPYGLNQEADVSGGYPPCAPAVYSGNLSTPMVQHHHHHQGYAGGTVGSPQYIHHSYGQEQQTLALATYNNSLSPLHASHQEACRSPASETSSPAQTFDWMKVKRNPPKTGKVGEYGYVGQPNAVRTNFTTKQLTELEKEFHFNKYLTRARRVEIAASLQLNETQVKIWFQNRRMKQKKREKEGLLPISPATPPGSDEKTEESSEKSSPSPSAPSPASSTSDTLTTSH
Kind of test: pull-down.

B1: Hoxa1-399, [35S]-labeled, in vitro translated (natural protein, mouse, UniProt P09022-2 1-133, looked up)
chain: MNSFLEYPILGSGDSGTCSARAYPSDHGITTFQSCAVSANSCGGDDRFLVGRGVQISSPHHHHHHHHHHHPQTATYQTSGNLGISYSHSSCGPSYGAQNFSAPYGPYGLNQEADPPRSLSFPCFRDVFSSADL
modifications: [35S]-cysteine radiolabel
Regarding B1, the “fold bound over GST alone” value worked out at 8 fold.

The values above are taken from publication PMC3923656 (Journal of cellular biochemistry, 2009).
